Source: article PMC11134965

Legend:
[1] = molecular target: chicken nesfatin-1 (chicken (Gallus gallus)); experiment: AUC; sedimentation velocity, 20 °C, 50,000 rpm, buffer B1 (20 mM Tris-HCl pH 7.5, 150 mM NaCl) with 50 µM Zn(II); gN1/2 at 0.92, 1.32, 1.85 mg/ml, gN1 (Table S1); c(s) model
[2] = molecular target: chicken nesfatin-1 (chicken (Gallus gallus)); experiment: AUC; sedimentation velocity, 20 °C, 50,000 rpm, buffer B1 (20 mM Tris-HCl pH 7.5, 150 mM NaCl) with 500 µM ZnCl2; gN1 at 0.7, 1.0, 1.3 mg/ml; c(s) model
[3] = molecular target: chicken nesfatin-1/2 (nesfatin-1 and nesfatin-2 conjoined in a head-to-tail manner) (chicken (Gallus gallus)); experiment: AUC; sedimentation velocity, 20 °C, 50,000 rpm, buffer B1 (20 mM Tris-HCl pH 7.5, 150 mM NaCl) with 50 µM Zn(II); gN1/2 at 0.92, 1.32, 1.85 mg/ml, gN1 (Table S1); c(s) model

Substance | relative abundance of the second sedimenting species (2.16 S), 50 µM Zn(II) [1] [%] | relative abundance of the second sedimenting species (2.59 S) at 1.0 mg/ml, 500 µM Zn(II) [2] [%] | relative abundance of the second sedimenting species (2.60 S) at 0.7 mg/ml, 500 µM Zn(II) [2] [%] | relative abundance of the second sedimenting species (2.63 S) at 1.3 mg/ml, 500 µM Zn(II) [2] [%] | stoichiometry N [2] | relative abundance of the second sedimenting species (3.43 S) at 1.85 mg/ml, 50 µM Zn(II) [3] [%] | relative abundance of the second sedimenting species (3.49 S) at 0.92 mg/ml, 50 µM Zn(II) [3] [%] | relative abundance of the second sedimenting species (3.64 S) at 1.32 mg/ml, 50 µM Zn(II) [3] [%] | stoichiometry N [3]
chicken nesfatin-1 (peptide) | 17 | 51 | 44 | 51 | 2 |  |  |  | 
chicken nesfatin-1/2 (nesfatin-1 and nesfatin-2 conjoined in a head-to-tail manner) (domain or fragment) |  |  |  |  |  | 13 | 13 | 15 | 2
